Assay results from the nanobody polyreactivity screen of Harvey et al. (2022).

Experiment: yeast display, Sf9 membrane polyspecificity reagent, FACS + sequencing; frameworks hold sequencing errors
Outline: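 After 36–48 hours of galactose induction, yeast (Saccharomyces cerevisiae BJ5465) displaying a synthetic nanobody library were stained at 4 °C for 1 hour with 10% biotinylated, detergent-solubilized Sf9 membrane reagent. Streptavidin microbeads enriched the stained cells before FACS sorting into low and high (top ~1%) gates on anti-HA and streptavidin fluorescence. Each clone's polyreactivity label reflects its gate of origin.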

Row | Sequence | polyreactivity (PSR sort gate)
1 | QVQLEESGGGLVQAGGSLRLSCAASGRTFYPNAMGWYRQAPGKERELVAAITRSGGRTYYADSVKGRFTISRDNAYYTVYLQMNSLKPEDSAVYYCNADLYYLYYKYEYWGQGTQVTVSS | low polyreactivity
2 | QVQLVESGGGLVQAGGSLRLSCAASGSTFNKYAMVWYRQAPGKERELVAAITGSGGRTYYADSVKGRFTISRDTAKNTVYLQMNSLKPEHTAVYYCNAGITHGYDYWGQGTQVSVSS | high polyreactivity
3 | QVQLVESGGGLVQAGGSLRLSCAASGSIFSAYAMGWYRQAPGKEREFVAGITSSGGRTYYADSVKGRFTISRDNAKNTVYLQMNSLKPEDTAVYYCAARFYKKDRRAYGYWGQGTQVTVSS | high polyreactivity
4 | QVQLVESVGGLVQAGGSLRLSCAASGSIFYGYAMGWYRQAAGKEREFVAAITFSATSTYYADSVKGRFTISRDNAKNTVYLQMNSLKPEVTAVYYCNASHVSHYRARDYWGQGTQVTVSS | low polyreactivity
5 | QVQLVESGGGLVQAGGSLRLSCAASGRIFYPYAMGWYRQAPGKERELVAAIRWGGGSTYADSVKGRFTISRDNAKNTVYLQMNSLKPEDTAVYYCAAKSYPYYGYPGAYDYWGQGTQVTVSS | low polyreactivity
6 | QVQLVESGGGLVQAGGSLRLSCAASGSTRRYVMAWYRQAPGKEMELVAAISYSGGSTYYADSVKGRFTISRDNAKNTVYLQMNSLKPEETAVYYCAADGYSGQYGGHMGYWGQGTQVTVSS | high polyreactivity
7 | QVQLVESGGGLVQAGGSLRLSCAASGSIFPYYVMGWYRQAPGKERYADSVKGRFTISRDNAKNTVYLQMNSLKPVDTAVYYSAAKVPEPPSLDESDYWGQGSQVTVSS | low polyreactivity
8 | QVQLVESGGGLVQAGGSLRLSCAASGFTFTQYAMGWYGQAPGKEREFVAAITASGGSTYYADSVKGRFTISRDNAKNTVYLQMNSLKPEDTAVYYCAAKGRPDGKYDYWGQGTQVTVSS | high polyreactivity
9 | QVQLVESGGGLGQAGGSLRLSCAASGITFRSYAMGWYRQAPGKERELVATISWSGGITYYADSVKGRFTISRDNAKNTVYLQMNSLKPEDTAVYYCAKASQSWGPDDYYYWGQGTQVTVSS | low polyreactivity
10 | QVQLVESGGGLVQAGGSLRLSCAASGGIFYIYAMGWYRQAPGQERELVAAISWRGTSTYYADSVKGRFTISRDNAKNTVYLQMNRLKPEDTAVYYCAADFSYTSYATRYQGDYWGQGTQVTVSS | low polyreactivity
11 | QVQLVESWGGLVQAGGSLRLSCAASGLTFNYYAMGWYRQAPGKERELVAAITSSGGSTYYADSVKGRFTISRDNAKNTVYLQMNSLKPEDTAVYYCNADVYAHRYIYGFDYWGQGTQVTVSS | high polyreactivity
12 | QVQLVESGGGLVQAGGSLRLSCAASGRIFRPNAMGWYRQAPGKERELVATITSDGSTKYADSVKGRFTISRDNAKNTVYLQMNSLKPEDTAVYYCAVRWARRYRYYYWGQGTQVTVSS | high polyreactivity
13 | QVQLVESGGGLVQAGGSLRLSCAASGRTFYNYAMGWYRQAPGKERELVATINRGVSTNYADSVKGRFTISRDNEKNTVYLQMNSLKPEDTAVYYCAARKRPPYGYGYWGQGTQVTVSS | high polyreactivity
14 | QVQLVESGGGLVQAGGSLRLSCAASGLTFPGYAMGWYRQAPVKERELVAAISYSSGSTYYADSVKGRFTISRDNAKNTVYLQMNILKQEDTEVYYCNRVYRFRGITELDYWGQGTQVTVSS | high polyreactivity
15 | HVQLVESGGGLVQAAGSLRLSCAASGSTFYRYAMGWYRQAPVKERELVAAITRGGGRTYYADSVKGRFTISRDNAKNTVYLQMNSLKPEDTAVFYCNAASPYYDSWGQGTQVTVSS | high polyreactivity
16 | QVQVVESGGGLVQAGGSLRLSCAASGFISSYYAMGWYRQAPGKERELVAAITSGGRTYYADSVKGRFTISRDNAKNTVYLQMNSLKPEDTAVYYCAKYSRTKAFDYWGQGTQVTVSS | high polyreactivity
17 | QVQLVESGGGLVQAGGSLRLSCAASGSTFYWYAMGWYRHAPGKEREFVADIDWSGGSTYYADSVKGRFTISLDNAKNTVYLQMNSLKPEDTAVYYCAAVGAAGQDNYWGQGTQVTVSS | high polyreactivity
